Measurements taken from the supplement of paper PMC6757056.
± gives the standard deviation of the averaged measurements.

B1: library; a variant is named by its letters at N, in order (parent)
chain: GCUGUCACCGGUGUAUUACCCUAGUGGUCGACCGGUCUGAUGAGUCUNNNNNNAGACGAAACAGC

What was measured:
hypoxanthine [1] = variants of: B1; assay: FACS-Seq fitted mean relative fluorescence mCherry/BFP without ligand (log10 relative fluorescence); ligand: hypoxanthine (xanthine aptamer); higher = higher reporter protein expression; conditions: HEK293T, ligand present: no
In short: (§1)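 HEK293T libraries were made by lentiviral transduction with a ribozyme-switch mCherry reporter and an EF1α-BFP marker, enriched, and incubated with or without ligand for 48 h. Cells were sorted into 6 mCherry/BFP bins, and each bin's genomic DNA was PCR-amplified, barcoded and run on MiSeq. Fluorescence was derived by normal fitting of the bin counts. The fitted log10(mCherry/BFP) mean was scaled to five spiked-in control ribozymes.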

hypoxanthine [2] = variants of: B1; assay: normalized RNA/DNA level with ligand (relative to sTRSVctl = 100) (log10 (% of sTRSVctl)); ligand: hypoxanthine (xanthine aptamer); higher = less ribozyme self-cleavage, higher mRNA level; conditions: ligand concentration (+) RNA-Seq: 5 mM, HEK293T, reporter: mCherry (pCS4076), ligand present: yes
Description: (§2)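 Hammerhead (sTRSV) ribozyme switch libraries with a ligand aptamer grafted on stem I and a randomized N4-6 loop II, cloned into the 3' UTR of mCherry and transiently transfected into HEK293T cells; RNA-Seq 72 h post transfection with ligand added 1 h before transfection; RNA read count / plasmid DNA read count normalized to the non-cleaving sTRSVctl (x100), log10; sequences with >100 DNA reads. FACS-Seq: lentiviral library sorted into 6 bins after 48 h ligand, log-normal fit mean of mCherry/BFP scaled to controls. Printed sequences are partial switch sequences.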

hypoxanthine [3] = variants of: B1; assay: normalized RNA/DNA level without ligand (relative to sTRSVctl = 100) (log10 (% of sTRSVctl)); ligand: hypoxanthine (xanthine aptamer); higher = less ribozyme self-cleavage, higher mRNA level; conditions: HEK293T, reporter: mCherry (pCS4076), ligand present: no
Description: as §2

hypoxanthine [4] = variants of: B1; assay: FACS-Seq fitted mean relative fluorescence mCherry/BFP with ligand (log10 relative fluorescence); ligand: hypoxanthine (xanthine aptamer); ligand concentration (+) FACS-Seq: 5 mM; higher = higher reporter protein expression; conditions: HEK293T, ligand present: yes
In short: as §1

Variant	FACS-Seq fitted mean (log10) (hypoxanthine [1])	normalized RNA/DNA level with ligand (log10) (hypoxanthine [2])	normalized RNA/DNA level without ligand (log10) (hypoxanthine [3])	FACS-Seq fitted mean (log10) (hypoxanthine [4])
UCAUAA	0.7537 ± 0.0032	1.93 ± 0.029	1.75 ± 0.025	0.622 ± 0.0065
CCAUAC	0.1516 ± 0.0013	1.9 ± 0.031	1.836 ± 0.011	0.283 ± 0.013
UCAUAC	0.306 ± 0.022	1.98 ± 0.041	1.89 ± 0.056	0.474 ± 0.0069
ACAUAG	0.305 ± 0.026	1.84 ± 0.072	1.52 ± 0.024	0.522 ± 0.046
UCAUAG	0.588 ± 0.1	1.89 ± 0.033	1.69 ± 0.022	0.567 ± 0.11
CCAUAU	0.286 ± 0.014	1.96 ± 0.029	1.82 ± 0.057	0.542 ± 0.01
GCAUAU	0.326 ± 0.025	1.93 ± 0.031	1.736 ± 0.0026	0.329 ± 0.014
UCAUCA	0.87 ± 0.1	1.99 ± 0.031	1.98 ± 0.044	0.763 ± 0.052
GCAUCG	0.0876 ± 0.11	1.964 ± 0.018	1.506 ± 0.0042	0.53188 ± 0.00023
ACAUCG	0.306 ± 0.048	1.932 ± 0.019	1.57 ± 0.016	0.584 ± 0.052
CCAUGA	0.311 ± 0.11	1.986 ± 0.016	1.788 ± 0.016	0.414 ± 0.064
ACAUGA	0.3098 ± 0.0019	1.91 ± 0.019	1.66 ± 0.026	0.509 ± 0.021
UCAUGA	0.457 ± 0.055	1.885 ± 0.014	1.5 ± 0.032	0.53 ± 0.061
GCAUGC	-0.393 ± 0.035	1.926 ± 0.01	1.74 ± 0.14	-0.314 ± 0.05
CCAUGG	0.39 ± 0.0048	1.85 ± 0.07	1.47 ± 0.018	0.611 ± 0.053
GCAUGG	0.196 ± 0.083	1.83 ± 0.052	1.33 ± 0.063	0.701 ± 0.049
ACAUGG	0.335 ± 0.022	1.87 ± 0.035	1.29 ± 0.027	0.631 ± 0.1
ACAUGU	0.399 ± 0.057	1.91 ± 0.052	1.65 ± 0.061	0.567 ± 0.024

Variant	FACS-Seq fitted mean (log10) (hypoxanthine [1])	normalized RNA/DNA level with ligand (log10) (hypoxanthine [2])	normalized RNA/DNA level without ligand (log10) (hypoxanthine [3])	FACS-Seq fitted mean (log10) (hypoxanthine [4])
CCAUUC	-0.142 ± 0.078	2.022 ± 0.0033	1.9 ± 0.07	0.309 ± 0.014
ACAUUC	0.36 ± 0.034	1.979 ± 0.0095	1.92 ± 0.062	0.421 ± 0.02
GCAUUG	0.25 ± 0.015	1.88 ± 0.0068	1.4 ± 0.022	0.602 ± 0.062
UCAUUU	0.631 ± 0.012	1.96 ± 0.052	1.91 ± 0.031	0.769 ± 0.024
CCCAAA	0.477 ± 0.017	1.922 ± 0.019	1.84 ± 0.036	0.617 ± 0.11
GCCAAA	0.458 ± 0.073	1.95 ± 0.042	1.813 ± 0.017	0.612 ± 0.1
ACCAAA	0.2 ± 0.028	1.938 ± 0.011	1.8 ± 0.018	0.487 ± 0.046
UCCAAA	0.00132 ± 0.058	1.937 ± 0.0063	1.804 ± 0.0049	0.0172 ± 0.041
ACCAAC	0.0939 ± 0.026	1.93 ± 0.025	1.883 ± 0.0074	0.317 ± 0.049
CCCAAG	0.293 ± 0.059	1.91 ± 0.033	1.6 ± 0.079	0.439 ± 0.018
GCCAAG	0.432 ± 0.0083	1.829 ± 0.011	1.4 ± 0.051	0.713 ± 0.047
UCCAAG	0.264 ± 0.033	1.897 ± 0.015	1.54 ± 0.036	0.457 ± 0.044
ACCAAU	0.003 ± 0.21	1.9 ± 0.091	1.74 ± 0.026	0.157 ± 0.038
CCCACA	0.706 ± 0.022	1.99 ± 0.086	1.862 ± 0.0068	0.739 ± 0.032
UCCACG	-0.24 ± 0.012	1.94 ± 0.14	1.71 ± 0.036	0.0232 ± 0.017
ACCAGU	-0.346 ± 0.35	1.907 ± 0.0063	1.8 ± 0.064	-0.721 ± 0.15
UCCAGU	0.305 ± 0.066	1.96 ± 0.066	1.771 ± 0.013	0.502 ± 0.0098
GCCAUA	0.231 ± 0.083	1.95 ± 0.049	1.85 ± 0.079	0.487 ± 0.0075
